Source: publication PMC4454200 (2015)

Target: Myosin-5a (Mus musculus, UniProt Q99104)
Assay: ATPase activity assay

Sequence of Myosin-5a (Q99104 2-1853): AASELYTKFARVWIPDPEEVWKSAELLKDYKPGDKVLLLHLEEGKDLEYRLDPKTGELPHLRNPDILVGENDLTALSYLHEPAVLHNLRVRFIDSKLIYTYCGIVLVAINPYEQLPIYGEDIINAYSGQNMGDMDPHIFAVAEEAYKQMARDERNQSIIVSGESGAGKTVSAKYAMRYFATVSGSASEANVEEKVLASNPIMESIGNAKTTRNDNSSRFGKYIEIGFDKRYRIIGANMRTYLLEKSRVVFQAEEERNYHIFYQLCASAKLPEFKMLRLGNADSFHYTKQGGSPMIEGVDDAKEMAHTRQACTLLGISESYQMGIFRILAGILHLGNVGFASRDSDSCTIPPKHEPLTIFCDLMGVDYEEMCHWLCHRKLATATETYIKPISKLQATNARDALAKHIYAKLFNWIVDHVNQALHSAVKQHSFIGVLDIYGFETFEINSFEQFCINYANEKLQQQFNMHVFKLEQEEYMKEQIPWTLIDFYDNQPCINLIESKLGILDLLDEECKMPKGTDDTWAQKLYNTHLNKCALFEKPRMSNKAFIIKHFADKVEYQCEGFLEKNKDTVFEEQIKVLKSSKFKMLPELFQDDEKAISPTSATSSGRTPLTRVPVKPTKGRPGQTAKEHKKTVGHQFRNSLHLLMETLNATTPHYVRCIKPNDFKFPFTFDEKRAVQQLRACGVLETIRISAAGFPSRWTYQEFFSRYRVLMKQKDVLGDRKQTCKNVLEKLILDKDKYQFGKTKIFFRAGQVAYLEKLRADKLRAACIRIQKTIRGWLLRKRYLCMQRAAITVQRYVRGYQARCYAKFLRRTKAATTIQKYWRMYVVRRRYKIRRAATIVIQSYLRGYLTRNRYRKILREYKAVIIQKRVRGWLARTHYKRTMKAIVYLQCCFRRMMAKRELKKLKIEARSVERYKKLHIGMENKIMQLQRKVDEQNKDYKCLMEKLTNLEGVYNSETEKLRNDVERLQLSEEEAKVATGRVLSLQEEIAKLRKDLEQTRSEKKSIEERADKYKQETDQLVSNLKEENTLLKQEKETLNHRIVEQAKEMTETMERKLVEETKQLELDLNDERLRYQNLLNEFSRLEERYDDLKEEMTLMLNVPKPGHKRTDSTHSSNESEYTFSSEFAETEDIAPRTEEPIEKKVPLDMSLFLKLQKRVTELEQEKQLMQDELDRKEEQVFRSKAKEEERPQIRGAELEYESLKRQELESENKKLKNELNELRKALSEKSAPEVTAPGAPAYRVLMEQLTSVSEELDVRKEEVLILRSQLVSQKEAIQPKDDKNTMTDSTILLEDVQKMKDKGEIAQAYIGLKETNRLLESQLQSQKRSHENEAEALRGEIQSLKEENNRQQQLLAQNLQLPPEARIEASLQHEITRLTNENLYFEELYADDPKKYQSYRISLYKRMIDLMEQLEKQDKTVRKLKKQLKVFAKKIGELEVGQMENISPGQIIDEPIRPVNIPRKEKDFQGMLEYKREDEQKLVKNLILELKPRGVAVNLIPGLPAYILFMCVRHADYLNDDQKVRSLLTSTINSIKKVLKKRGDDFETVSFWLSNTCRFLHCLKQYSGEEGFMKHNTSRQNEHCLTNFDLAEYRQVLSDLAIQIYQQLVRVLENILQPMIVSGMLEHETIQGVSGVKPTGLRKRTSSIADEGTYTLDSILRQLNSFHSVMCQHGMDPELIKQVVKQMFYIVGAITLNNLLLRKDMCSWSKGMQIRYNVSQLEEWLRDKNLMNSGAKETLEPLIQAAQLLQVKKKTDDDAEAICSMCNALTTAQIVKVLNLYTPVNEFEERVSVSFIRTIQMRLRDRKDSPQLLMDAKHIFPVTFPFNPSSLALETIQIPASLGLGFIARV

Kd: 19.8 µM
Binder: RDQPLNSKKKKRLLSFRDVDFEEDSD [Melanophilin GTBDP]
